Experimental data published in patent US20230139885A1 (FUNDACI INSTITUT DE RECERCA CONTRA LA LEUC MIA JOSEP …, published 2023).

Biological target: T1, human CD22 on cells (human, UniProt P20273 20-847)
T1 construct: whole, on cells; also called CD22-transfected 300.19 cells; CD22+ Raji cells
T1 sequence (looked up): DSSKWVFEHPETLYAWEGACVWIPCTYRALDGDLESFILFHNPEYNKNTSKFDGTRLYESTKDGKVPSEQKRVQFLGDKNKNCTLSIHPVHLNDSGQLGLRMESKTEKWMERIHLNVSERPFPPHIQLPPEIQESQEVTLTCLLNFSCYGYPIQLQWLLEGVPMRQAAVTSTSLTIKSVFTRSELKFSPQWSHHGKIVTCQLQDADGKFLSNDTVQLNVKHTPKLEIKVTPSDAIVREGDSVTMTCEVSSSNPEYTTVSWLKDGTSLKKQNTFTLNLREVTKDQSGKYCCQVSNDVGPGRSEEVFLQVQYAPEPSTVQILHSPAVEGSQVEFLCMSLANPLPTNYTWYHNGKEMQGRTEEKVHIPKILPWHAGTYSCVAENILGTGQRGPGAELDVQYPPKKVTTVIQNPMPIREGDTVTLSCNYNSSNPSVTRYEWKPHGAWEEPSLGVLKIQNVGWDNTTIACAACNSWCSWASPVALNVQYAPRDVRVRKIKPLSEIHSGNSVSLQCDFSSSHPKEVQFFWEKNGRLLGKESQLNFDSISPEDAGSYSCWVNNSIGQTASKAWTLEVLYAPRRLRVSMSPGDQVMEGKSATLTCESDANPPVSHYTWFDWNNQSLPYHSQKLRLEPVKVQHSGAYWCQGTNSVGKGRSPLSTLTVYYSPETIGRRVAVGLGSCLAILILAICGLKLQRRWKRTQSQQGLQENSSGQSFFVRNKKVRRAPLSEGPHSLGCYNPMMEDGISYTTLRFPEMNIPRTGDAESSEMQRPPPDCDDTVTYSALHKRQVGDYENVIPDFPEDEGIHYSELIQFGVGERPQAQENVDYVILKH
Assay: flow cytometry of hybridoma supernatants on CD22-transfected 300.19 cells
Source text: MoAbs reactive with human CD22 were generated by fusion of NS-1 myeloma cells with splenocytes from a Balb/c mouse previously immunized three times with 30×10⁶ CD22-transfected 300.19 cells. Supernatants from hybridoma-containing wells were screened by flow cytometry for moAbs reactive with CD22-transfected 300.19 cells. Three reactive hybridomas were chosen for further characterization and were subcloned by limiting dilution (clones hCD22.7, hCD22.316 and hCD22.401). The three antibodies were of the IgG1K isotype, as determined using a mouse moAb isotyping kit (Boehringer Mannheim, Mannheim, Germany). Antibody specificity was further validated using a CD22-transfected COS cell line (pUNO1-hCD22; InvivoGen, Toulouse, France), the cell lines Raji, Daudi, […], U266 and Jurkat, and peripheral blood (PB) mononuclear cells (PBMCs). CD22 epitope binding to the hCD22.7 clone was determined by crossblocking with an antibody against the N-terminal domain of CD22 (S-HCL-1). The CD22-specific scFv derived from the hCD22.7 clone was obtained using the mouse IgG Library Primer Set (Progen, Heidelberg, Germany).

B1: anti-CD22 monoclonal antibody clone hCD22.7 (antibody, V domains shown)
VH: EVQLQESGPSLVKPSQTLSLTCSVTGDSITSGYWNWIRKFPGNKLEYMGYISYSGSTYYNPSLKSRISITRDTSKNQYYMQLKSVTTEDTATYYCARYPSPDAMNYWGQGTSVTVSS
VL: not shown
notes: also called hCD22.7 moAb; hCD22.7 clone
binding result: binds
